{"source": "patent US20240101646A1", "about": "(VANDERBILT UNIVERSITY, published 2024)", "target": "T1, SARS-CoV-2 NTD (SARS-CoV-2, UniProt P0DTC2 14-305)", "T1 construct": "domain: NTD", "assay": "ELISA, antigen plated at 2 µg/mL (FIG. 12A)"}
{"binder": "antibody 5317-10 (antibody, V domains shown) VH: EVQLVQSGAEVKKPGESLTISCKASGYRFTSNWITWVRQMPGKGLEWMGRIDPDDPYSNSSPSFQGHATLSLDKAINTAYLHWSSLKASDTAMYYCARVNRVGDGPDFWGQGTLVTVSS VL: DIVMTQSPLSLPVTPGEPASISCRSSQSLLFGNGYTYLNWYLQKPGQSPQLLIYLGSNRASGVPDRFSVSGSGTDFTLIISRVEAEDVGVYFCMQALQTPWTFGQGTKVEIK", "values": [{"measurement": "binding result", "value": "no binding"}]}
